In IntAct's records for PubMed 19909340:

B1: Broad substrate specificity ATP-binding cassette transporter ABCG2 (Homo sapiens), Q9UNQ0 (parent)
chain: MSSSNVEVFIPVSQGNTNGFPATASNDLKAFTEGAVLSFHNICYRVKLKSGFLPCRKPVEKEILSNINGIMKPGLNAILGPTGGGKSSLLDVLAARKDPSGLSGDVLINGAPRPANFKCNSGYVVQDDVVMGTLTVRENLQFSAALRLATTMTNHEKNERINRVIQELGLDKVADSKVGTQFIRGVSGGERKRTSIGMELITDPSILFLDEPTTGLDSSTANAVLLLLKRMSKQGRTIIFSIHQPRYSIFKLFDSLTLLASGRLMFHGPAQEALGYFESAGYHCEAYNNPADFFLDIINGDSTAVALNREEDFKATEIIEPSKQDKPLIEKLAEIYVNSSFYKETKAELHQLSGGEKKKKITVFKEISYTTSFCHQLRWVSKRSFKNLLGNPQASIAQIIVTVVLGLVIGAIYFGLKNDSTGIQNRAGVLFFLTTNQCFSSVSAVELFVVEKKLFIHEYISGYYRVSSYFLGKLLSDLLPMRMLPSIIFTCIVYFMLGLKPKADAFFVMMFTLMMVAYSASSMALAIAAGQSVVSVATLLMTICFVFMMIFSGLLVNLTTIASWLSWLQYFSIPRYGFTALQHNEFLGQNFCPGLNATGNNPCNYATCTGEEYLVKQGIDLSPWGLWKNHVALACMIVIFLTIAYLKLLFLKKYS

Variants of: B1
Details: with ubc_human UBC

| effect of a mutation on the interaction | Variant |
| --- | --- |
| increasing interaction | N596Q |
